Data: patent publication US11827911B2, “Chimeric bacteriophage lysin with activity against Staphylococci bacteria” (priority 2008, dated 2023)

Experiments:
staphylococci = assay: Lytic activity of chimera lysates against staphylococci; format: cell-based; conditions: qualitative
S. aureus 8325-4 cells = assay: Transmission electron microscopy of the lytic effect; format: cell-based, Staphylococcus aureus; conditions: 50 U of ClyS for 1-3 min
Method: However, unlike other lysins, the sites of degradation on the cell was not restricted to the septal or polar positions but was randomly distributed.
S. aureus strain 8325-4 was grown to log-phase, centrifuged and resuspended in PBS to an absorbance at 600 nm of 1.0. The bacterial suspension was incubated with 50 U of ClyS at room temperature. […] The suspension was pelleted by centrifugation and overlaid with 2.5% glutaraldehyde in 0.1 M cacodylate buffer (pH 7.4). The samples were then postfixed in 1% osmium tetroxide, block stained with uranyl acetate and processed according to standard procedures by The Rockefeller University Electron Microscopy Service.

B1: ClyS: chimeric lysin: Twort lysin endopeptidase domain attached to the phiNM3 CWT domain, 280 amino acid residues (protein)
chain: METLKQAESYIKSKVNTGTDFDGLYGYQCMDLAVDYIYHVTDGKIRMWGNAKDAINNSFGGTATVYKNYPAFRPKYGDVVVWTTGNFATYGHIAIVTNPDPYGDLQYVTVLEQNWNGNGIYKTELATIRTHDYTGITHFIRPNFATESSVKKKDTKKKPKPSNRDGLNKDKIVYDRTNINYNMVLQGKSASKITVGSKAPYNLKWSKGAYFNAKIDGLGATSATRYGDNRTNYRFDVGQAVYAPGTLIYVFEIIDGWCRIYWNNHNEWIWHERLIVKEVF
modifications: Chimeric of Staphylococcus aureus bacteriophage Twort domain and Staphylococcus aureus phage phiNM3 CWT domain
notes: chimeric lysin: Twort lysin endopeptidase domain attached to the phiNM3 CWT domain, 280 amino acid residues
- lytic activity against staphylococci (staphylococci): active
- lytic effect seen by transmission electron microscopy (S. aureus 8325-4 cells): localized degradation of the cell wall
